1 molecule from PMC4141763, “Reciprocal Activating Crosstalk between c-Met and Caveolin 1 Promotes Invasive Phenotype in Hepatocellular Carcinoma” (PLoS ONE, 2014) can be followed below.

Some results are limits rather than exact numbers.

The test has as its target T1, c-Met, the receptor for Hepatocyte Growth Factor (HGF) (human (endogenous in SNU-449 and …, UniProt P08581 25-1390)).
T1 construct: precipitated with agarose-conjugated anti-c-Met antibody sc-161 AC; Endogenous receptor in a lysate; the co-IP blot detects total c-Met; also called c-Met Tyrosine Kinase; source: endogenous, Mahlavu whole cell lysate
Nature of the test: co-IP; SNU-449 whole cell lysates (modified NP-40 buffer) precipitated with agarose-conjugated anti-c-Met antibody (sc-161 AC), blotted for CAV1 and c-Met; serum-starved cells untreated or exposed to HGF (40 ng/mL) for 15, 30 and 60 min; IgG as IP control. The settings on record: partners not purified.

T1 sequence (P08581 25-1390): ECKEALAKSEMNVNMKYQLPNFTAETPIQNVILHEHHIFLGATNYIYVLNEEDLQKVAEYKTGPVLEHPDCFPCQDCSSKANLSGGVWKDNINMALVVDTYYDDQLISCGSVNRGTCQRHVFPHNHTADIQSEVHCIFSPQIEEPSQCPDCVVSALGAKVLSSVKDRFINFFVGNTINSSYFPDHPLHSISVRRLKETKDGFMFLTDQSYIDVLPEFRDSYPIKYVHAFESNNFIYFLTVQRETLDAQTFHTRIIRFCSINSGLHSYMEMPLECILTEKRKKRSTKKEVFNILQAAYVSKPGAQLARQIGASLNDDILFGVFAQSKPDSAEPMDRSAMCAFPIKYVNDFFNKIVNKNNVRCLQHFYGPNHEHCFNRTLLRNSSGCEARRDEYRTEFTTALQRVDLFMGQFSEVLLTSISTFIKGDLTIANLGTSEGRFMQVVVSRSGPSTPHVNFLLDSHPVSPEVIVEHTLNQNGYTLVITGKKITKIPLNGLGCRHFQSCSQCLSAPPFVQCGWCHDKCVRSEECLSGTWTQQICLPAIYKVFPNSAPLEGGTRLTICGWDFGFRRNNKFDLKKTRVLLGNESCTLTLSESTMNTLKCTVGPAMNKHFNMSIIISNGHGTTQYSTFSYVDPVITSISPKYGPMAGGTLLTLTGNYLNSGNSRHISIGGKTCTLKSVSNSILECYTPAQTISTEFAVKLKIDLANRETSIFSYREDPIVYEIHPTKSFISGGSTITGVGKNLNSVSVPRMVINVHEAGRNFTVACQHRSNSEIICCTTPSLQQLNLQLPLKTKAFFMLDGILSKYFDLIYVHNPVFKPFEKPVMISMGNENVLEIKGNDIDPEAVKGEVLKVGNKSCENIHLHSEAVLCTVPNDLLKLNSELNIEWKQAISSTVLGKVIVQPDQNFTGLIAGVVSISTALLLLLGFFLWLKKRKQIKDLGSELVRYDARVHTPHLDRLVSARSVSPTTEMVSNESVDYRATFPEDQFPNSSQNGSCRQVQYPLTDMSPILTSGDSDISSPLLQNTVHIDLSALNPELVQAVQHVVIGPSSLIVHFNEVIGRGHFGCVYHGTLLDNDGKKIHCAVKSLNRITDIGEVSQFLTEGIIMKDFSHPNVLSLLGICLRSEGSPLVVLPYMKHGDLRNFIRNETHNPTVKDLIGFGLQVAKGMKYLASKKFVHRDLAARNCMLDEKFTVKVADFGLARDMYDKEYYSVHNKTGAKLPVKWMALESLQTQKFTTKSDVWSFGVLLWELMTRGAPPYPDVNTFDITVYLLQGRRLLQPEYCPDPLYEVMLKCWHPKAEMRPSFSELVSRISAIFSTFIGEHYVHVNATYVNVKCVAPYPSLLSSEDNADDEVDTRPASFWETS

B1: Caveolin 1 (CAV1) (natural protein, UniProt Q03135 1-178, looked up)
chain: MSGGKYVDSEGHLYTVPIREQGNIYKPNNKAMADELSEKQVYDAHTKEIDLVNRDPKHLNDDVVKIDFEDVIAEPEGTHSFDGIWKASFTTFTVTKYWFYRLLSALFGIPMALIWGIYFAILSFLHIWAVVPCIKSFLIEIQCISRVYSIYVHTVCDPLFEAVGKIFSNVRINLQKEI
notes: detected by Western blot with an antibody to CAV1; Endogenous protein; the co-IP blot detects total CAV1; source: endogenous, Mahlavu whole cell lysate
With B1, the “fold increase in the amount co-immunoprecipitated upon HGF stimulation, against no HGF” value was ≥ 3 fold.
